The values that follow come from article PMC3793860, “A role for the vesicle-associated tubulin binding protein ARL6 (BBS3) in flagellum extension in Trypanosoma brucei” (Biochimica et Biophysica Acta, 2012).

In the assay the target is freshly polymerised microtubules (Microtubule Binding Protein Spin-Down Assay kit, Cytoskeleton, Inc.). Description: co-sedimentation; microtubule spin-down: 2.5 μg protein, 30 min at room temperature with freshly polymerised microtubules (equivalent of 2 μM tubulin dimer), 20 μM Taxol, 10 mM MgCl2 and 4 mM GDP or GTP; 100,000 g for 40 min through a 60% glycerol cushion; supernatant and pellet on Coomassie gel.
Sequence of freshly polymerised microtubules (Microtubule Binding Protein Spin-Down Assay kit, Cytoskeleton, Inc.) (P68363 whole entry, chain 1 of 2): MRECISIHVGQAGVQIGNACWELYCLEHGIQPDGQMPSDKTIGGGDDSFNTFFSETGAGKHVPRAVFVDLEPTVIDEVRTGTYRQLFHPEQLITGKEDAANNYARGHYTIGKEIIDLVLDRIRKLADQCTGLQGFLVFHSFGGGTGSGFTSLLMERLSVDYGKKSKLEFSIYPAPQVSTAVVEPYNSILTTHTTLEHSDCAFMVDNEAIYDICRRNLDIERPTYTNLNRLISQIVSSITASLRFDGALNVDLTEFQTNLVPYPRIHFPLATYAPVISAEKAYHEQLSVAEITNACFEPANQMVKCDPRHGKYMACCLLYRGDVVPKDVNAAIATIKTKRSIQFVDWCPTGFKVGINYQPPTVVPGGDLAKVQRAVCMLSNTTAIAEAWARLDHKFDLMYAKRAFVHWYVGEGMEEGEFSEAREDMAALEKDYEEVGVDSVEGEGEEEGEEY
Sequence of freshly polymerised microtubules (Microtubule Binding Protein Spin-Down Assay kit, Cytoskeleton, Inc.) (A8K068 whole entry, chain 2 of 2, further chain): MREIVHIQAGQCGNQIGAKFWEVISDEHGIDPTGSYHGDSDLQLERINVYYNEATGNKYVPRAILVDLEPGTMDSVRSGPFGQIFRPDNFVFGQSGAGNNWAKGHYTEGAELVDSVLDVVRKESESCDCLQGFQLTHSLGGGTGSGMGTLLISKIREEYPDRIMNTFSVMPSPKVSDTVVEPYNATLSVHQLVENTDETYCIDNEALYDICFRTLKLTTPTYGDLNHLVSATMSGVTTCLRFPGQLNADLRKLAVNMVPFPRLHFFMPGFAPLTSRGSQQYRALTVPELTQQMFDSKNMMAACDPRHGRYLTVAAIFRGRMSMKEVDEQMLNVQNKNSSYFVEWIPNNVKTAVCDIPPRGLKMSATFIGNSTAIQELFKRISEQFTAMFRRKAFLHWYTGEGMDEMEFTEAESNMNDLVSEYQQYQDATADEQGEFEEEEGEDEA

“N-terminal His-tagged recombinant T. brucei ARL6 (natural protein)”: the percent of the protein in the insoluble fraction with microtubules, with GDP came to 36% and the percent of the protein in the insoluble fraction with microtubules, with GTP amounted to 20%.
